Reference: PMC5776092

Biological target: cysteine deficient variant of the human neuropeptide Y receptor type 2 (Y2R), refolded and reconstituted into DMPC/DHPC-c7 bicelles (human) (UniProt P49146)

apparent GTPγS binding rate k of Gαi1 (intrinsic W211 tryptophan fluorescence, nucleotide exchange), Y2R in isotropic bicelles activated with 10 fold excess of NPY, 16°C: 0.06 s⁻¹ | apparent GTPγS binding rate k of Gαi1 (intrinsic W211 tryptophan fluorescence, nucleotide exchange), Y2R in non-isotropic bicelles activated with 10 fold excess of NPY, 16°C: 0.045 s⁻¹
Substance: pre-assembled Gαi1β1γ1 heterotrimer (from UniProt P10824 1-354; P62871 1-340; P02698 1-74) (complex)
